Assay results published in patent US7255862.

Tests used:
[1] = target: feline immunodeficiency virus (FIV) Env, Villefranche strain, expressed by ALVAC recombinants vCP242 / vCP255 (feline immunodeficiency virus, Villefranche strain); assay: sandwich kinetic ELISA, plate coated with pooled FIV gag-specific MAb 2 ug/well (mismatched capture control), env lysate 5 ug/well, control rabbit serum 1:100
[2] = target: feline immunodeficiency virus (FIV) Env, Villefranche strain, expressed by ALVAC recombinants vCP242 / vCP255 (feline immunodeficiency virus, Villefranche strain); assay: sandwich kinetic ELISA, plate coated with pooled FIV env-specific MAb 2 ug/well, env lysate 0.2 ug/well, control rabbit serum 1:100
[3] = target: feline immunodeficiency virus (FIV) Env, Villefranche strain, expressed by ALVAC recombinants vCP242 / vCP255 (feline immunodeficiency virus, Villefranche strain); assay: sandwich kinetic ELISA, plate coated with pooled FIV gag-specific MAb 2 ug/well (mismatched capture control), env lysate 0.2 ug/well, control rabbit serum 1:100
[4] = target: feline immunodeficiency virus (FIV) Env, Villefranche strain, expressed by ALVAC recombinants vCP242 / vCP255 (feline immunodeficiency virus, Villefranche strain); assay: sandwich kinetic ELISA, plate coated with pooled FIV gag-specific MAb 2 ug/well (mismatched capture control), env lysate 1 ug/well, control rabbit serum 1:100
[5] = target: feline immunodeficiency virus (FIV) Env, Villefranche strain, expressed by ALVAC recombinants vCP242 / vCP255 (feline immunodeficiency virus, Villefranche strain); assay: sandwich kinetic ELISA, plate coated with pooled FIV env-specific MAb 2 ug/well, env lysate 1 ug/well, control rabbit serum 1:100
[6] = target: feline immunodeficiency virus (FIV) Env, Villefranche strain, expressed by ALVAC recombinants vCP242 / vCP255 (feline immunodeficiency virus, Villefranche strain); assay: sandwich kinetic ELISA, plate coated with pooled FIV env-specific MAb 2 ug/well, env lysate 5 ug/well, control rabbit serum 1:100

Substance: Rabbit A039 prebleed serum
- KELISA (mOD/min) [1]: 1 mOD/min
- KELISA (mOD/min) [2]: 0.9 mOD/min
- KELISA (mOD/min) [3]: 1 mOD/min
- KELISA (mOD/min) [4]: 1.2 mOD/min
- KELISA (mOD/min) [5]: 0.7 mOD/min
- KELISA (mOD/min) [6]: 0.9 mOD/min
